Values quoted from earlier work as cited in article PMC13242166.

Biological target: TRH1 receptor (Homo sapiens) (UniProt P34981)
Test: radioligand binding

Sequence of UniProt P34981 (P34981 whole entry): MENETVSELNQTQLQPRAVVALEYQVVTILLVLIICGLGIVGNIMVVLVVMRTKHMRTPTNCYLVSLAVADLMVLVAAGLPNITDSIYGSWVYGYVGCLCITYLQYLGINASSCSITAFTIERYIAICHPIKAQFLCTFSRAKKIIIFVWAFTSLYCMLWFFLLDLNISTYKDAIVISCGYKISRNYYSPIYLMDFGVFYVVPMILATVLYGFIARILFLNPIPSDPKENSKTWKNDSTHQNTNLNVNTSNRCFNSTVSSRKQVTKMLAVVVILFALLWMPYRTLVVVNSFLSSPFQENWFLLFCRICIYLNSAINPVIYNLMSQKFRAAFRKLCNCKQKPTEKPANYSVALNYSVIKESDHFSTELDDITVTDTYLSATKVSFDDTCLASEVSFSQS

TRH (from UniProt P20396)
Kd: 13 nM
